Data taken from article PMC7679444.

These substances were tested against GST-HA-ATG16L1(231–607) (UniProt Q676U5) (assay: peptide microarray). Conditions: 800, 600, 400 nM; n = 9; read off a plot.

| Substance | percent of parent |
| --- | --- |
| TMEM59 peptide (residues 268–280), wild type (from UniProt Q9BXS4) S275del | 100 % WT |
| TMEM59 peptide (residues 268–280), wild type (from UniProt Q9BXS4) V269del; S271del | 180 % WT |
| TMEM59 peptide (residues 268–280), wild type (from UniProt Q9BXS4) L274del | 22 % WT |
| TMEM59 peptide (residues 268–280), wild type (from UniProt Q9BXS4) K273del; S275del | 160 % WT |
| TMEM59 peptide (residues 268–280), wild type (from UniProt Q9BXS4) S271del | 180 % WT |
| TMEM59 peptide (residues 268–280), wild type (from UniProt Q9BXS4) P270del; S271del | 180 % WT |
| TMEM59 peptide (residues 268–280), wild type (from UniProt Q9BXS4) L274del; I276del | 20 % WT |
| TMEM59 peptide (residues 268–280), wild type (from UniProt Q9BXS4) K273del; L274del; S275del | 120 % WT |
| TMEM59 peptide (residues 268–280), wild type (from UniProt Q9BXS4) S275del; I276del | 80 % WT |
| TMEM59 peptide (residues 268–280), wild type (from UniProt Q9BXS4) L274del; S275del | 120 % WT |
| TMEM59 peptide (residues 268–280), wild type (from UniProt Q9BXS4) L274del; S275del; I276del | 72 % WT |
| TMEM59 peptide (residues 268–280), wild type (from UniProt Q9BXS4) I276del | 50 % WT |

Second part, the substance after the results:

| percent of parent | Substance |
| --- | --- |
| 160 % WT | TMEM59 peptide (residues 268–280), wild type (from UniProt Q9BXS4) P270del |
| 22 % WT | TMEM59 peptide (residues 268–280), wild type (from UniProt Q9BXS4) K273del; L274del |
| 130 % WT | TMEM59 peptide (residues 268–280), wild type (from UniProt Q9BXS4) V269del; P270del |
| 15 % WT | TMEM59 peptide (residues 268–280), wild type (from UniProt Q9BXS4) K273del |
| 32 % WT | TMEM59 peptide (residues 268–280), wild type (from UniProt Q9BXS4) K273del; I276del |
| 7 % WT | TMEM59 peptide (residues 268–280), wild type (from UniProt Q9BXS4) K273del; L274del; I276del |
| 20 % WT | TMEM59 peptide (residues 268–280), wild type (from UniProt Q9BXS4) V269del |
